From patent US20260209349A1 (IMBIORAY HANGZHOU BIOMEDICINE, published 2026)

How the values were obtained:
[1] = target: Human CD33 (human, UniProt P20138 18-259); experiment: BLI, affinity to target
[2] = target: T1, Human CLL1 (human, UniProt Q5QGZ9 65-265, limits assumed); experiment: BLI, affinity to target
T1 construct: also called C-type lectin-like molecule 1
T1 sequence (looked up): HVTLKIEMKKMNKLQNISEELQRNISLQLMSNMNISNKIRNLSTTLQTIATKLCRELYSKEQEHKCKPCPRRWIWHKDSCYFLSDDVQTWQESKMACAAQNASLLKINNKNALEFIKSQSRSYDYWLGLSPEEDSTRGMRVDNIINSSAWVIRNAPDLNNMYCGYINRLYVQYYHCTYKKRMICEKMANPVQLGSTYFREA

Chain of Human CD33 (P20138 18-259 limits assumed): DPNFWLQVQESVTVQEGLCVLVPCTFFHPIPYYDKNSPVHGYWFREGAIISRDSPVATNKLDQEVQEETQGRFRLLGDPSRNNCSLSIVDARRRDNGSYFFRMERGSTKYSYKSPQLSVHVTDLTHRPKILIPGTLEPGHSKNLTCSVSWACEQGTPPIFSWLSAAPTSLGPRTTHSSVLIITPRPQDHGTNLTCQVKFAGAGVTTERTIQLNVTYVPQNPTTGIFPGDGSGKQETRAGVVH

B1: Anti-CD33-CLL1 bispecific antibody (bispecific antibody, human IgG1, kappa)
heavy 1: not shown
light 1: not shown
heavy 2: not shown
light 2: DIQMTQSPSSLSASVGDRVTITCRASESVDNYGISFMNWFQQKPGKAPKLLIYAASNQGSGVPSRFSGSGSGTDFTLTISSLQPDDFATYYCQQSKEVPWTFGQGTKVEIKRTVAAPSVFIFPPSDEQLKSGTASVVCLLNNFYPREAKVQWKVDNALQSGNSQESVTEQDSKDSTYSLSSTLTLSKADYEKHKVYACEVTHQGLSSPVTKSFNRGEC
notes: Copies '1' follow from this arm exchange; also called anti-CD33/CLL1 antibody
B1 gave a Kd [1] of 5.5 nM and a Kd [2] of 26 nM.
